Data on eight molecules can be found in publication PMC6851300, “Calcium-activated chloride channel regulator 1 (CLCA1) forms non-covalent oligomers in colonic mucus and has mucin 2–processing properties” (The Journal of Biological Chemistry, 2019).

The target of data set [1] is 250-kDa (nonreduced) fragment of MUC2-N after cleavage by rCLCA1, D′–D3 and CysD (human). The data set can be described thus: non-reducing SDS-PAGE with SYPRO Ruby stain and immunoblot; recombinant MUC2-N with or without in vitro cleavage by rCLCA1 fractions (18 h, 37 C, 20 mM Tris-HCl pH 7.5, 150 mM NaCl, 10 mM CaCl2), separated without DTT; D3 (MUC2-N3) antibody. For orientation: Immunoblotting shows a protein as a band on a membrane.

For data set [2], the target named is C-terminal cleavage product of human CLCA1 in sigmoid colon mucus and epithelium (human (endogenous in sigmoid colon)) (UniProt A8K7I4). Briefly: non-reducing SDS-PAGE with immunoblot; mucus and epithelial lysate from mouse distal colon or human sigmoid colon, denatured in SDS sample buffer without DTT (non-reduced) against with 100 mM DTT (reduced), blotted with C-terminal CLCA1 antibodies; shows disulfide-linked species only.

In data set [3] the target is C-terminal cleavage product of mouse Clca1 in distal colon mucus and epithelium (mouse (endogenous in colon)) (UniProt Q9D7Z6). The description is as above.
Data set [4] deals with C-terminal cleavage product of recombinant human CLCA1 in supernatant of transfected CHO-K1 cells (human) (UniProt A8K7I4). The data set can be described thus: non-reducing SDS-PAGE with immunoblot; supernatant from hCLCA1-transfected CHO-K1 cells, reducing or nonreducing sample buffer, blotted with C terminus (3-ar) antibody; shows disulfide-linked species only.
In data set [5] the target is Human CLCA1 in sigmoid colon mucus and epithelial lysate (N- and C-terminal products) (human (endogenous in sigmoid colon)) (UniProt A8K7I4). The data set can be described thus: native gel or EMSA; NativePAGE Novex Bis-Tris 4-16% with G-250; mucus and epithelial lysates from human sigmoid colon, WT and Clca1-/- mouse colon and desalted medium with rCLCA1; blotted with N- or C-terminal CLCA1 antibodies. A general note: A gel shift assay detects complexes by their altered migration in electrophoresis.

The target of data set [6] is Mouse Clca1 in colonic mucus and epithelial lysate (N- and C-terminal products) (mouse (endogenous in colon)) (UniProt Q9D7Z6). The description is as above.
Data set [7] deals with Recombinant human CLCA1 in spent supernatant of rCLCA1-expressing CHO-K1 cells (N- and C-terminal products) (human) (UniProt A8K7I4). The data set is described as above.
Data set [8] deals with the molecule itself. The data set can be described thus: non-reducing SDS-PAGE with immunoblot; supernatant from hCLCA1-transfected CHO-K1 cells, reducing or nonreducing sample buffer, blotted with C terminus (3-ar) antibody; shows disulfide-linked species only.

Consider “250-kDa (nonreduced) fragment of MUC2-N after cleavage by rCLCA1, D′–D3 and CysD (domain or fragment)”, for which the stoichiometry N (usually a count of units in the complex or per binding partner) in data set [1] is 3. As to “C-terminal cleavage product of human CLCA1 in sigmoid colon mucus and epithelium (from UniProt A8K7I4 22-914) (domain or fragment)”, the stoichiometry N in data set [2] was found to be 2.

On to “C-terminal cleavage product of mouse Clca1 in distal colon mucus and epithelium (from UniProt Q9D7Z6 22-913) (domain or fragment)”, for which, in data set [3], the stoichiometry N stood at 2.

Regarding “C-terminal cleavage product of recombinant human CLCA1 in supernatant of transfected CHO-K1 cells (from UniProt A8K7I4 22-914) (domain or fragment)”, the stoichiometry N in data set [4] was determined as 2. Consider “Human CLCA1 in sigmoid colon mucus and epithelial lysate (N- and C-terminal products) (from UniProt A8K7I4 22-914; A8K7I4 22-914) (complex)”, for which the stoichiometry N in data set [5] amounted to 8. Take “Mouse Clca1 in colonic mucus and epithelial lysate (N- and C-terminal products) (from UniProt Q9D7Z6 22-913; Q9D7Z6 22-913) (complex)”: the stoichiometry N in data set [6] was 8. “Recombinant human CLCA1 in spent supernatant of rCLCA1-expressing CHO-K1 cells (N- and C-terminal products) (from UniProt A8K7I4 22-914; A8K7I4 22-914) (complex)”: the stoichiometry N in data set [7] is 8.

B1: Uncleaved recombinant human CLCA1 secreted from transfected CHO-K1 cells (natural protein, UniProt A8K7I4 22-914, looked up)
chain: NSLIQLNNNGYEGIVVAIDPNVPEDETLIQQIKDMVTQASLYLLEATGKRFYFKNVAILIPETWKTKADYVRPKLETYKNADVLVAESTPPGNDEPYTEQMGNCGEKGERIHLTPDFIAGKKLAEYGPQGRAFVHEWAHLRWGVFDEYNNDEKFYLSNGRIQAVRCSAGITGTNVVKKCQGGSCYTKRCTFNKVTGLYEKGCEFVLQSRQTEKASIMFAQHVDSIVEFCTEQNHNKEAPNKQNQKCNLRSTWEVIRDSEDFKKTTPMTTQPPNPTFSLLQIGQRIVCLVLDKSGSMATGNRLNRLNQAGQLFLLQTVELGSWVGMVTFDSAAHVQNELIQINSGSDRDTLAKRLPAAASGGTSICSGLRSAFTVIRKKYPTDGSEIVLLTDGEDNTISGCFNEVKQSGAIIHTVALGPSAAQELEELSKMTGGLQTYASDQVQNNGLIDAFGALSSGNGAVSQRSIQLESKGLTLQNSQWMNGTVIVDSTVGKDTLFLITWTMQPPQILLWDPSGQKQGGFVVDKNTKMAYLQIPGIAKVGTWKYSLQASSQTLTLTVTSRASNATLPPITVTSKTNKDTSKFPSPLVVYANIRQGASPILRASVTALIESVNGKTVTLELLDNGAGADATKDDGVYSRYFTTYDTNGRYSVKVRALGGVNAARRRVIPQQSGALYIPGWIENDEIQWNPPRPEINKDDVQHKQVCFSRTSSGGSFVASDVPNAPIPDLFPPGQITDLKAEIHGGSLINLTWTAPGDDYDHGTAHKYIIRISTSILDLRDKFNESLQVNTTALIPKEANSEEVFLFKPENITFENGTDLFIAIQAVDKVDLKSEISNIARVSLFIPPQTPPETPSPDETSAPCPNIHINSTIPGIHILKIMWKWIGELQLSIA
modifications: glycosylated
notes: human CLCA1, full-length construct, not cut at the self-cleavage site (120 kDa); also called uncleaved rCLCA1; uncleaved CLCA1; source: CHO-K1, transfected, in supernatant
Regarding B1, in data set [8], the “stoichiometry N” value worked out at 2.
